The chains are these.
B1: EHEE_rd4_0726 (parent)
chain: DIEITTNGEEDAKRVIKELQKRNLEYHIEVHGNQWVIKVR

The values below come from the MegaScale stability set (Tsuboyama et al. 2023).

The variants in this data set derive from B1. Nature of the data set: folding stability dG (cDNA display proteolysis); higher = more stable. Conditions: PBS, room temperature.
DIEITTNGEEDAKRVQKELQKRNLEYHIEVHGNQWVIKVR: the “folding stability dG” value was 0.929 kcal/mol.

For the variant DIEIPTNGEEDAKRVIKELQKRNLEYHIEVHGNQWVIKVR, the “folding stability dG” value was determined as 1.59 kcal/mol.

For the variant DIEILTNGEEDAKRVIKELQKRNLEYHIEVHGNQWVIKVR, the “folding stability dG” value amounted to 2.49 kcal/mol.

For DIEITTNGEEDAKCVIKELQKRNLEYHIEVHGNQWVIKVR, the “folding stability dG” value was 2.57 kcal/mol.

DIERTTNGEEDAKRVIKELQKRNLEYHIEVHGNQWVIKVR: the “folding stability dG” value was 0.4 kcal/mol.

Consider DIEITTNGEEDAKRVIKELQKRNLSYHIEVHGNQWVIKVR, for which the “folding stability dG” value came to 2.67 kcal/mol.

In the case of DIEITTNGEEDAKRVIKELQKRNLDYHIEVHGNQWVIKVR, the “folding stability dG” value worked out at 2.31 kcal/mol.

DIEITTNGEEDAKRVIKELQKRNLEYIIEVHGNQWVIKVR: the “folding stability dG” value was 2.84 kcal/mol.

DIEITTNGEEDAKRVIKELQKRNLEYLIEVHGNQWVIKVR: the “folding stability dG” value was 2.37 kcal/mol.

Take DIEITTNGEEDAKRVIKELQKRNLEYHIEVHGLQWVIKVR: the “folding stability dG” value was determined as 1.94 kcal/mol.

Consider DIEITTNGEEDAKRVIKELQKRNLEYHIEVHGQQWVIKVR, for which the “folding stability dG” value worked out at 2.09 kcal/mol.

In the case of DIEITTNGEEDAKRVIKELQKRNLEYHIEVHGNQWWIKVR, the “folding stability dG” value is 1.16 kcal/mol.

For DIEITTNGEEDAKRVIKEWQKRNLEYHIEVHGNQWVIKVR, the “folding stability dG” value came to 0.45 kcal/mol.

Consider DIEITTNGEEDAKRVIKELIKRNLEYHIEVHGNQWVIKVR, for which the “folding stability dG” value stood at 2.77 kcal/mol.

DIEITTNGEEDAKRVIKELCKRNLEYHIEVHGNQWVIKVR: the “folding stability dG” value was 1.98 kcal/mol.

With DIEITTNGEEDAKRVIKELVKRNLEYHIEVHGNQWVIKVR, the “folding stability dG” value was found to be 2.4 kcal/mol.

Turning to DIEITTNGEEDAKRNIKELQKRNLEYHIEVHGNQWVIKVR, the “folding stability dG” value stood at 0.1 kcal/mol.

Regarding DIEITTNGEEDAKRWIKELQKRNLEYHIEVHGNQWVIKVR, the “folding stability dG” value worked out at 2.41 kcal/mol.

Turning to DIEITTNGEEDAKRYIKELQKRNLEYHIEVHGNQWVIKVR, the “folding stability dG” value was determined as 1.99 kcal/mol.

With DIEITTNGEEDAKREIKELQKRNLEYHIEVHGNQWVIKVR, the “folding stability dG” value is 0.404 kcal/mol.

DIEITTNGEEDAKRVIMELQKRNLEYHIEVHGNQWVIKVR: the “folding stability dG” value stood at 2.64 kcal/mol.

With DIEITTNGEEDAKRVILELQKRNLEYHIEVHGNQWVIKVR, the “folding stability dG” value amounted to 2.74 kcal/mol.

For TIEITTNGEEDAKRVIKELQKRNLEYHIEVHGNQWVIKVR, the “folding stability dG” value worked out at 2.63 kcal/mol.

Take MIEITTNGEEDAKRVIKELQKRNLEYHIEVHGNQWVIKVR: the “folding stability dG” value is 2.87 kcal/mol.

In the case of DIEITTNGELDAKRVIKELQKRNLEYHIEVHGNQWVIKVR, the “folding stability dG” value was 2.15 kcal/mol.

DIEITTNGEYDAKRVIKELQKRNLEYHIEVHGNQWVIKVR: the “folding stability dG” value amounted to 2.07 kcal/mol.

On to DIEITTNGEEDAMRVIKELQKRNLEYHIEVHGNQWVIKVR, for which the “folding stability dG” value was 2.96 kcal/mol.

For the variant DIEITTNGEEDAKRVIKELQKRNLEYHIEVHGNQWVIKVW, the “folding stability dG” value was 2.3 kcal/mol.

Regarding DIEITTNGEEDAKRVIKELQKRNLEYHIEVHGNQWVIKVK, the “folding stability dG” value turned out to be 2.63 kcal/mol.

For DIEITTNGEEDAKRVIKELQKRNLEYHIEVHGNQKVIKVR, the “folding stability dG” value was 0.49 kcal/mol.

Consider DIEITTNGEEDAKRVIKELQKRNLEYHIEVHGNQVVIKVR, for which the “folding stability dG” value worked out at 1.67 kcal/mol.

Consider DIEITTNGEEDAKRVIKELQKRNLEYHIEVHGNQCVIKVR, for which the “folding stability dG” value was found to be 1.35 kcal/mol.

In the case of DIEITTNGEEDAKRVIKELQKRNLEYHIEVHGNQNVIKVR, the “folding stability dG” value was -0.421 kcal/mol.

With DIEITTNGEEDAKRVIKELQKRNLEYHIEVHGNQGVIKVR, the “folding stability dG” value was -0.933 kcal/mol.

For the variant DIEITTNGEEDAKRVIKELQKRNLEYHIEEHGNQWVIKVR, the “folding stability dG” value is 1.16 kcal/mol.

Take DIEITTNGEEDAKRVIKELQKRNLEYHIEAHGNQWVIKVR: the “folding stability dG” value turned out to be 1.41 kcal/mol.

Consider DIEITTLGEEDAKRVIKELQKRNLEYHIEVHGNQWVIKVR, for which the “folding stability dG” value stood at 2.47 kcal/mol.

Consider DIEITTGGEEDAKRVIKELQKRNLEYHIEVHGNQWVIKVR, for which the “folding stability dG” value was determined as 1.78 kcal/mol.

DIEITTNGEEDAKRVIKDLQKRNLEYHIEVHGNQWVIKVR: the “folding stability dG” value stood at 1.84 kcal/mol.

Regarding DIEITTNGEEDAKRVIKELQKRNLEYHIEVWGNQWVIKVR, the “folding stability dG” value worked out at 2.08 kcal/mol.

As to DIEITTNGEEDAKRVIKELQKRNLEYHIEVGGNQWVIKVR, the “folding stability dG” value was found to be 0.973 kcal/mol.

Consider DIEITTNWEEDAKRVIKELQKRNLEYHIEVHGNQWVIKVR, for which the “folding stability dG” value stood at 1.75 kcal/mol.

For DISITTNGEEDAKRVIKELQKRNLEYHIEVHGNQWVIKVR, the “folding stability dG” value amounted to 2.5 kcal/mol.

For DIYITTNGEEDAKRVIKELQKRNLEYHIEVHGNQWVIKVR, the “folding stability dG” value stood at 3.11 kcal/mol.

DIVITTNGEEDAKRVIKELQKRNLEYHIEVHGNQWVIKVR: the “folding stability dG” value turned out to be 3.33 kcal/mol.

DIMITTNGEEDAKRVIKELQKRNLEYHIEVHGNQWVIKVR: the “folding stability dG” value came to 2.74 kcal/mol.

DIAITTNGEEDAKRVIKELQKRNLEYHIEVHGNQWVIKVR: the “folding stability dG” value was found to be 2.16 kcal/mol.

Consider DIEITTNGEEDAKRVIKELQKRNLEYHIEVHGNQWVIFVR, for which the “folding stability dG” value is 2.63 kcal/mol.

Regarding DIEITTNGEEDAKRVIKELQKRNLEYHIEVHGNQWVISVR, the “folding stability dG” value is 1.94 kcal/mol.

Regarding DIEITTNGEEDAKRVIKELQKRNLEYHIEVHGNQWVIGVR, the “folding stability dG” value was 0.141 kcal/mol.

Turning to DIEITTNGEEDAKRVIKELQKRNLEYHIEVHGNQWVILVR, the “folding stability dG” value turned out to be 2.34 kcal/mol.

For the variant DIEITTNGEEDAKRVIKELQKRNLEYHIEVHGNQWVIRVR, the “folding stability dG” value was 2.58 kcal/mol.

In the case of DIEITTNGEEDAKRVIKELQKTNLEYHIEVHGNQWVIKVR, the “folding stability dG” value stood at 1.51 kcal/mol.

On to DIEITTNGEEDAKRVIKELQKPNLEYHIEVHGNQWVIKVR, for which the “folding stability dG” value came to 0.049 kcal/mol.

Turning to DIEITTNGEEDAKRVIKELQKRVLEYHIEVHGNQWVIKVR, the “folding stability dG” value was determined as 1.09 kcal/mol.

Turning to DIEITTNGEEDAKRVIKELQKRNLEYHEEVHGNQWVIKVR, the “folding stability dG” value was -0.159 kcal/mol.

Turning to DIEITTNGEEDAKRVIKELQKRNLEYHIEVHNNQWVIKVR, the “folding stability dG” value was found to be 1.94 kcal/mol.

DIEITTNGEEDAKRVIKELQVRNLEYHIEVHGNQWVIKVR: the “folding stability dG” value was found to be 1.91 kcal/mol.

DSEITTNGEEDAKRVIKELQKRNLEYHIEVHGNQWVIKVR: the “folding stability dG” value was 1.65 kcal/mol.

In the case of DIEITTNGEEDGKRVIKELQKRNLEYHIEVHGNQWVIKVR, the “folding stability dG” value worked out at 1.43 kcal/mol.

Consider DIEITTNGEEDLKRVIKELQKRNLEYHIEVHGNQWVIKVR, for which the “folding stability dG” value was 2.53 kcal/mol.

For the variant DIEITTNGYEDAKRVIKELQKRNLEYHIEVHGNQWVIKVR, the “folding stability dG” value is 2.78 kcal/mol.

Take DIEITTNGKEDAKRVIKELQKRNLEYHIEVHGNQWVIKVR: the “folding stability dG” value worked out at 2.06 kcal/mol.
